Measurements as given in US20030134774A1, “Methods for inhibiting cardiac disorders” (priority 2001, published 2003).

Columns and labels:
Assay type in all cases: cell-based, rat
[1] = test system: ANF mRNA; experiment: Northern blot analysis of ANF mRNA in cardiomyocytes; conditions: rPMT 400 ng/ml or NE 10 μM, 48 hr, serum-free
Description: (§1) rPMT mimics the effect of norepinephrine to promote cardiomyocyte hypertrophy. Cardiomyocytes were cultured in serum-free medium without or with rPMT (400 ng/ml) or norepinephrine (NE, 10 μM) for 48 hr. Cardiomyocytes were fixed, permeabilized, and stained with monoclonal anti-α-actinin sarcomeric (Panel A, magnification×100) or subjected to Northern blot analysis for measurements of steady-state ANF mRNA expression (Panel B). Effects of rPMT (black bars) and NE (gray bars) vs. vehicle (white bars) on sarcomeric organization (Panel C), cell size (Panel D), and protein synthesis (Panel E) are illustrated (n=3 for each).
Total RNA from neonatal rat cardiomyocytes were isolated by using a Qiagen kit according to manufacturer's instructions. A rat ANF cDNA probe (˜600 bp) was labeled with [^32P]dCTP. 10 μ/g of total RNA was separated on a 1% agarose gel and transferred to a nylon membrane (Amersham). Prehybridization and hybridization were performed according to standard methods. Normalization of signals was performed with a glyceraldehyde-3-phosphate dehydrogenase probe. Signals were detected by Phosphorimage analysis.

[2] = test system: PKCδ and PKCε; experiment: Immunoblot of nPKC isoform abundance in cardiomyocytes; conditions: 24 hr stimulation
Description: (§2) rPMT selectively activates nPKC isoforms. Cardiomyocyte cultures were incubated in culture medium without or with NE (10 μM), rPMT (400 ng/ml) or PMA (100 nM) for 24 hr (Panels A and C) or 5 min (Panel B). Soluble extracts were prepared and separated by SDS-PAGE followed by immunodetection of total PKC isoform abundance with antibodies that are specific for the individual PKC isoforms (Panel A), or phosphorylated forms of PKC (largely PKCε) with a pan-phospho-PKC antibody (Panels B and C), as described in Methods below. GF109203 was included at 5 μM 30 min prior to stimulation as indicated.
(§3) Cells were maintained in culture in the presence of 10% FCS for 96 hr and then switched to serum-free medium for 24 hr prior to the addition of agonists as indicated. For PKC, extracts were prepared and subjected to SDS-PAGE to resolve individual isoforms according to methods described previously (14).
(§4) Specific immunoreactivity for individual PKC isoforms was quantified according to methods described previously. […] Bands were detected by enhanced chemiluminescence and blots were quantified by laser scanning densitometry.

[3] = test system: PKCα and PKCλ; experiment: Immunoblot of PKCα/PKCλ abundance and distribution in cardiomyocytes; conditions: 24 hr stimulation
Description: as §2, §3, §4

[4] = test system: AKT; experiment: Phospho-AKT and total AKT Western blot in cardiomyocytes
Description: rPMT decreases basal AKT phosphorylation and prevents its phosphorylation by EGF. Neonatal rat cardiomyocytes were treated with rPMT (400 ng/ml) for 24 hr (Panel A), 48 hr (Panel B) or with EGF (50 ng/ml) for 5 min. Cell lysates were subjected to SDS-PAGE followed by Western blotting with antibodies that recognize the phosphorylated form or total AKT. Data are from representative gels, with similar results obtained in 3 separate experiments.
Panel A: Cells were treated with norepinephrine (NE, 10 μM) or PMA (100 nM) for 5 min without or with GF109203 (5 μM).
Panel B: Cells were treated with rPMT (400 ng/ml), NE (10 μM) or PMA (100 nM) for 24 hr without or with Go6983 (5 μM). […] Cell lysates were subjected to SDS-PAGE followed by Western blotting using a specific anti-phospho-AKT antibody. Data are from representative gels, with similar results obtained in 3 separate culture preparations.
Specific immunoreactivity for individual PKC isoforms was quantified according to methods described previously. For assays of MAPKs and AKT, cells were exposed to test agents as indicated in individual experimental protocols, washed three times with ice-cold calcium/magnesium-free Dulbecco's PBS (pH 7.1), scraped into ice-cold extraction buffer [20 mM β-glycerophosphate pH 7.5, 20 mM sodium fluoride, 2 mM EDTA, 0.2 mM sodium vanadate, 10 μg/ml aprotinin, 25 μg/ml leupeptin, 50 μg/ml PMSF, and 0.3% (v/v) β-mercaptoethanol], lysed by sonication, and centrifuged at 10,000 g for 10 min at 4° C. The supernatant was diluted in SDS-PAGE sample buffer, boiled for 5 min, and stored at −70° C. Western blot analysis was performed with antibodies that are selective for the phosphorylated (activated) forms of ERK1/2, p38-MAPK, JNK, AKT, and pan-PKC according to manufacturer's instructions. For each panel in each Figure, the results are from a single gel exposed for a uniform duration. Bands were detected by enhanced chemiluminescence and blots were quantified by laser scanning densitometry.

[5] = test system: cardiomyocytes; experiment: TUNEL assay of apoptosis in cardiomyocyte cultures
Description: rPMT increases H2O2-induced apoptosis in cardiomyocyte cultures. Cells were treated without or with rPMT (400 ng/ml) for 24 hr followed by H202 (500 μM) for 24 hr. The percentage of cells undergoing apoptosis was measured by TUNEL assay as described in Methods below. Data are from a single experiment and are representative of results obtained on 3 separate culture preparations.
TUNEL staining was performed for detection of apoptotic cells according to manufacturer's instructions (Boehringer). Approximately 500 cardiomyocytes were imaged by fluorescence microscopy and the number of cells that scored TUNEL-positive is presented as a percentage of total.

[6] = test system: cardiomyocytes; experiment: Cardiomyocyte growth: sarcomeric organization and cell size; conditions: rPMT 400 ng/ml or NE 10 μM, 48 hr, serum-free
Description: as §1
Cardiomyocyte growth was assessed by measuring cell surface area by digitized image analysis. For each experimental point, 7-10 frames/dish were recorded at 40× magnification with a video camera attached to a Nikon microscope which was calibrated with a micrometer.
Cardiomyocytes were grown on slides precoated with fibronectin. After treatment, cells were fixed with cold methanol and permeabilized with 0.1% Triton X-100 and 0.2% BSA. Cells were incubated with α-actinin monoclonal antibody overnight at 4° C. followed by anti-mouse IgG-Cy3-labeled antibody for 30 min at room temperature. Fluorescence microscopy images were obtained at 100× magnification.

B1: rPMT: recombinant Pasteurella multocida toxin, a Gαq agonist used as pharmacological probe (protein, UniProt P17452 1-1285, looked up)
Dermonecrotic toxin: MKTKHFFNSDFTVKGKSADEIFRRLCTDHPDKQLNNVKWKEVFINRFGQMMLDTPNPRKIVEKIINEGLEKQGLKNIDPETTYFNIFSSSDSSDGNVFHYNSLSESYRVTDACLMNIFVERYFDDWDLLNSLASNGIYSVGKEGAYYPDHDYGPEYNPVWGPNEQIYHSRVIADILYARSVWDEFKKYFMEYWQKYAQLYTEMLSDTFLAMAIQQYTRQTLTDEGFLMVCNTYYGNKEEVQITLLDIYGYPSTDIICIEQKGLPTPKVILYIPGGTQPFVEFLNTDDLKQWIAWHLKDNKHMVAFRKHFSLKQRQEGETFTGIDKALQYIAEESPEWPANKYILYNPTHLETENLFNIMMKRTEQRMLEDSDVQIRSNSEATRDYALSLLETFISQLSAIDMLVPAVGIPINFALSATALGLSSDIVVNGDSYEKRKYGIGSLVQSALFTGINLIPVISETAEILSSFSRTEEDIPAFFTEEQALAQRFEIVEEELHSISPDDPPREITDENLHKIRLVRLNNENQPLVVLRRLGGNKFIRIEPITFQEIKGSLVSEVINPVTNKTYYVSNAKLLGGSPYSPFRIGLEGVWTPEVLKARASVIGKPIGESYKRILAKLQRIHNSNILDERQGLMHELMELIDLYEESQPSSERLNAFRELRTQLEKALYLPEMEALKKQILQIPNKGSGAARFLLRTAMNEMAGKTSESTADLIRFALQDTVISAPFRGYAGAIPEAIDFPVKYVIEDISVFDKIQTNYWELPAYESWNEGSNSALLPGLLRESQSKGMLSKCRIIENSLYIGHSYEEMFYSISPYSNQVGGPYELYPFTFFSMLQEVQGDLGFEQAFATRNFFNTLVSDRLSLMENTMLLTESFDYTPWDAIYGDINYDEQFAAMSINERIEKCMNTYRGVAFQNSSKSIDFFLNNLTTFIDNGLTEIAISDLPYDIVQQEISQFLQGSNEWKTLDAMLFNLDKGDINGAFRKLLQSAKDNNIKFRAIGHSDNSVPPFNNPYKSLYYKGNIIAEAIEKLDREGQKFVVFADSSLLNSTPGTGRPMPGLVQYLKIPATVVDSDGAWQFLPDVASSRVPIEVTELENWQVLTPPQGKILGLKQFKLTAGFPTEQSRLPLLENSVSEDLREELMQKIDAIKNDVKMNSLVCMEAGSCDSVSPKVAARLKDMGLEAGMGASITWWRREGGMEFSHQMHTTASFKFAGKEFAVDASHLQFVHDQLDTTILILPVDDWALEIAQRNRAINPFVEYVSKTGNMLALFMPPLFTKPRLTRAL
B1 was tested, and the “ANF mRNA expression” value [1] was “induce ANF mRNA expression”, the “abundance of PKC-δ and PKC-ε in the particulate fraction” value [2] was “remains relatively preserved” and the “abundance of PKCδ and PKCε in the soluble fraction” value [2] was “significantly reduce”. The “abundance and subcellular distribution of PKCα and PKCλ” value [3] was “is not altered”, the “total AKT immunoreactivity, treated vs control cultures” value [4] was “similar” and the “basal AKT phosphorylation after 24 hr treatment” value ([4]; 24 hr, relative to control cultures) was “reduced basal AKT phosphorylation”. For the same molecule, the “effect on AKT activation by EGF” value ([4]; rPMT-treated cultures) was “blunted”, the “effect on H2O2-induced apoptosis” value ([5]; rPMT 400 ng/ml 24 hr followed by H2O2 500 μM 24 hr) was “augmented” and the “number of TUNEL-positive cells” value ([5]; serum-free conditions for 48 hr) was “small increase”. The “cell size (cellular enlargement)” value [6] was “induce marked cellular enlargement” and the “myofibrillar (sarcomeric) organization” value [6] was “promote myofibrillar organization”.
